The target in this assay is Integrin αIIbβ3 (human (endogenous in platelets)) (UniProt P05106). Briefly: cryo-EM structure.

This note sets out measurements from article PMC11623648.

A word on the stoichiometry N: it is the number of molecules, sites or subunits per partner or assembly. “Integrin αIIbβ3 (from UniProt P05106 27-788) (complex)” displayed a stoichiometry N of 2.
